Data on one molecule can be found in PMC5264208, “Transitional changes in the CRP structure lead to the exposure of proinflammatory binding sites” (Nature Communications, 2017).

Assay [1] addresses T1, Alexa Fluor 488-labelled C1q (human, UniProt P02745 23-245; P02746 28-253; P02747 29-245, Alexa Fluor 488 (site and chain not stated) | Alexa Fluor 488 (site and chain not stated) | Alexa Fluor 488 (site and chain not stated)).
T1 construct: Complement C1q subcomponent subunit A, human; Complement C1q subcomponent subunit B, human; Complement C1q subcomponent subunit C, human; Same protein as m3 with a fluorescent label; source: labelled with Alexa Fluor 488; copies: 6 + 6 + 6
Briefly: real-time fluorescence binding (LigandTracer); THP-1 microvesicles (0.5 mg/ml) spotted on nitrocellulose, blocked with 5% BSA; Alexa Fluor 488-labelled C1q added with or without pCRP. To be noted: both partners purified.

The target in assay [2] is T2, human complement factor 1q (human, UniProt P02745 23-245; P02746 28-253; P02747 29-245).
T2 construct: Complement C1q subcomponent subunit A, human; Complement C1q subcomponent subunit B, human; Complement C1q subcomponent subunit C, human; also called C1q; complement C1q; source: bought: Merck Chemicals GmbH; copies: 6 + 6 + 6
T2 sequence (P02745 23-245, chain 1 of 3): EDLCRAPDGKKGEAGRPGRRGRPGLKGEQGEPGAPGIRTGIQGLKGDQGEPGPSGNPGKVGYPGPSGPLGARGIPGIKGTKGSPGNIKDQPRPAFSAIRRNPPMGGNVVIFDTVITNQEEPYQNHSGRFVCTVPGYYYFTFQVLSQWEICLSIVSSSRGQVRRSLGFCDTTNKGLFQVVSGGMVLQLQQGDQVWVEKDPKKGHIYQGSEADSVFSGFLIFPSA
T2 sequence (P02746 28-253, chain 2 of 3): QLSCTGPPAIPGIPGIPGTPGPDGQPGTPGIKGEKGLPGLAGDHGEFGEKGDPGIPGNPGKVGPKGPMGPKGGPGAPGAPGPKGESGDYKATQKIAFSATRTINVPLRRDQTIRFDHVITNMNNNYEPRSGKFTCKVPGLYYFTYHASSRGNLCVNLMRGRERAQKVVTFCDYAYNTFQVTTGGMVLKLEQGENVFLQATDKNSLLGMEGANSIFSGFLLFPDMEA
T2 sequence (P02747 29-245, chain 3 of 3): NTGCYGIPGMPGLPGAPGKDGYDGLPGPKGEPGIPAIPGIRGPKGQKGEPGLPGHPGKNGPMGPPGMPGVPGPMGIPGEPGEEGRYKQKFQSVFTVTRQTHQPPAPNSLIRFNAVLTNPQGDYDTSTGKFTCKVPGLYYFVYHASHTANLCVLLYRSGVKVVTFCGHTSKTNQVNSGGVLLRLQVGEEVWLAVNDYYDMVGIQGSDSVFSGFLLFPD
As to the kind of experiment: real-time fluorescence binding (LigandTracer); human C1q (60 ug/ml) spotted on nitrocellulose; CMFDA-labelled THP-1 microvesicles preincubated 2 h at 37 °C with pCRP or mCRP (100 ug/ml) and added at 20 ug/ml; the read-out is the fluorescence of the microvesicles that carry the CRP. To be noted: both partners purified.

T1 sequence (P02745 23-245, chain 1 of 3): as the sequence (P02745 23-245, chain 1 of 3) above
T1 sequence (P02746 28-253, chain 2 of 3): as the sequence (P02746 28-253, chain 2 of 3) above
T1 sequence (P02747 29-245, chain 3 of 3): as the sequence (P02747 29-245, chain 3 of 3) above

B1: pentameric C-reactive protein (natural protein, human, UniProt P02741 19-224, looked up)
chain: QTDMSRKAFVFPKESDTSYVSLKAPLTKPLKAFTVCLHFYTELSSTRGYSIFSYATKRQDNEILIFWSKDIGYSFTVGGSEILFEVPEVTVAPVHICTSWESASGIVEFWVDGKPRVRKSLKKGYTVGAEASIILGQEQDSFGGNFEGSQSLVGDIGNVNMWDFVLSPDEINTIYLGGPFSPNVLNWRALKYEVQGEVFTKPQLWP
notes: C-reactive protein, human; five identical subunits of about 23 kDa; also called pCRP; CRP; source: bought: Calbiochem; dialysed against D-PBS with 2 mM Ca2+
Consider B1, for which the binding result in assay [1] and in assay [2] was “binds” throughout.
